# Test system: AncSZ
# Assay: phosphorylation enrichment, bacterial display (enrichment ratio); higher = better substrate or ligand; peptides without Tyr show the background
# 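Note: 11-residue human phosphosite peptides and single-mutation variants displayed on the E. coli surface, counted by deep sequencing, each peptide's frequency after selection divided by its frequency in the unselected input library; frequency after pTyr selection over input frequency; kinase dosed for 20-30% of maximal phosphorylation in three min.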
row,Sequence,phosphorylation enrichment
1,ILDEAYVMASM [EGFR_Y764_V769M],1.22
2,VFSATYHPDHW [EFCAB12_Y544_P541S_YF],0.739
3,PTYKHYANSTQ [SLC12A3_Y70_E68K],0.39
4,WKGSWYSMRKM [FGB_Y475],1.07
5,VIESSYQVAKA [CPT1B_Y534],0.7
6,FLRKEYGGVNV [CBR3_Y81_L84V],0.644
7,DGTGRYLCNAC [GATA5_Y208_H207R],0.552
8,NTADFYDLFGG [PTPN11_Y63_G60A_YF],0.993
9,KNCFKYYMSDD [ATRX_Y203],1.4
10,HNLNFYKKTTN [FGFR3_Y648_D646N_YF],1.42
11,PTFEHYANSTQ [SLC12A3_Y70_YF],1.34
12,LHSEAYLKFIE [PBRM1_Y1610_YF],1.56
13,EGWQVYRLGTR [MISP_Y95_A99T],0.846
14,PLKALYLQQRP [ATM_Y2969],0.954
15,DKNSSYFADWL [TUBB8_Y340],1.13
16,HFEDGYPGGSD [CTNND1_Y221_YF],1.15
17,SSNPEYLSASD [INSR_Y999],1.12

row,Sequence,phosphorylation enrichment
1,EEAAGCAQESQ [CAMKV_Y491_Y491C],1.15
2,YTNELYMMMRD [FGFR1_Y730_C725Y],1.68
3,LAEMNYVHRDL [EPHB1_Y740],1.32
4,SVVVTYEPPEV [TP53_Y220_P219T],1.57
5,SENAFYLSPHI [COL6A3_Y2827_D2831H],1.26
6,PYRSIYFSSPK [MPG_Y75],0.878
7,TEALYYTDDTA [ADPRS_Y75],1.46
8,SKDSAYVTWEP,0.988
9,GVLDIYGFEIL [MYO1A_Y382],1.14
10,AGADGYGFLAP [FOXL2_Y186_YF],0.846
11,VDHFGYTKDDK [APOB_Y740],0.709
12,PRAEWYRDDLL [MYOM2_Y317_V321L],1.49
13,AVVEPYNSLLT [TUBA1A_Y185_I188L],0.888
14,FGCTFYNQAIM [MCCC2_Y196_R193C],1.4
15,IITDYYVDMKF [MPP4_Y567_V562I],1.87
16,ATRDVYNPFET [SCAMP3_Y41_L38R],0.835

# Target: EPHB1 (UniProt P54762)
# Sequence (P54762 whole entry, looked up): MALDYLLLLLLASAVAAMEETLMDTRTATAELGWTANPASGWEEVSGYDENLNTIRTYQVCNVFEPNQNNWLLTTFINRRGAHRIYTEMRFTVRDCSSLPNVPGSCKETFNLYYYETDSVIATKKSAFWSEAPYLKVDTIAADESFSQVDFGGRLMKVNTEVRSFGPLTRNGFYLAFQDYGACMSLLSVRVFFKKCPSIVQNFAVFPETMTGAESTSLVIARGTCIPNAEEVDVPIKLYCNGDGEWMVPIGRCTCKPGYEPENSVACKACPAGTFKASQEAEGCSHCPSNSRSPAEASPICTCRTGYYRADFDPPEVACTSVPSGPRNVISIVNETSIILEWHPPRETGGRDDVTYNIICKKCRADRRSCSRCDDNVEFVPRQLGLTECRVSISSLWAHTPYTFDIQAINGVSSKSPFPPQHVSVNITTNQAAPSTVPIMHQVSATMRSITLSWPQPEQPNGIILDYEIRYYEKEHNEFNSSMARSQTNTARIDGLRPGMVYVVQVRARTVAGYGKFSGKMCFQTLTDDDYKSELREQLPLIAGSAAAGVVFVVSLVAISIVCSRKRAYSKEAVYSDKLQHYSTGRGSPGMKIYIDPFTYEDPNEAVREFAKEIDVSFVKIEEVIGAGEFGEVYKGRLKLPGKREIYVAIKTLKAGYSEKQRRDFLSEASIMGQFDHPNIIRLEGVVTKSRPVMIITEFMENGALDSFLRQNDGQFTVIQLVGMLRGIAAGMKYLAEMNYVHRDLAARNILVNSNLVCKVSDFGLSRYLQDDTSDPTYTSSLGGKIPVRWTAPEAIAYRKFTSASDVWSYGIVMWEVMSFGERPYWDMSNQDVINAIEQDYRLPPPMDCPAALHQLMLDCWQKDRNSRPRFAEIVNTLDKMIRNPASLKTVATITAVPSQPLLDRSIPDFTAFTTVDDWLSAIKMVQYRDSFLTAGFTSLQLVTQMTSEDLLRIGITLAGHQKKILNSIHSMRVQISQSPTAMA
# Assay: as above
row,Sequence,phosphorylation enrichment
1,ILDEAYVMASM [EGFR_Y764_V769M],0.461
2,VFSATYHPDHW [EFCAB12_Y544_P541S_YF],0.518
3,PTYKHYANSTQ [SLC12A3_Y70_E68K],0.391
4,WKGSWYSMRKM [FGB_Y475],0.588
5,VIESSYQVAKA [CPT1B_Y534],0.454
6,FLRKEYGGVNV [CBR3_Y81_L84V],0.391
7,DGTGRYLCNAC [GATA5_Y208_H207R],0.4
8,NTADFYDLFGG [PTPN11_Y63_G60A_YF],0.628
9,KNCFKYYMSDD [ATRX_Y203],0.794
10,HNLNFYKKTTN [FGFR3_Y648_D646N_YF],0.761
11,PTFEHYANSTQ [SLC12A3_Y70_YF],0.768
12,LHSEAYLKFIE [PBRM1_Y1610_YF],0.877
13,EGWQVYRLGTR [MISP_Y95_A99T],0.416
14,PLKALYLQQRP [ATM_Y2969],0.766
15,DKNSSYFADWL [TUBB8_Y340],0.573
16,HFEDGYPGGSD [CTNND1_Y221_YF],0.656
17,SSNPEYLSASD [INSR_Y999],0.514

row,Sequence,phosphorylation enrichment
1,EEAAGCAQESQ [CAMKV_Y491_Y491C],0.645
2,YTNELYMMMRD [FGFR1_Y730_C725Y],5.42
3,LAEMNYVHRDL [EPHB1_Y740],0.441
4,SVVVTYEPPEV [TP53_Y220_P219T],1.06
5,SENAFYLSPHI [COL6A3_Y2827_D2831H],0.576
6,PYRSIYFSSPK [MPG_Y75],0.519
7,TEALYYTDDTA [ADPRS_Y75],1.31
8,SKDSAYVTWEP,0.518
9,GVLDIYGFEIL [MYO1A_Y382],0.903
10,AGADGYGFLAP [FOXL2_Y186_YF],0.391
11,VDHFGYTKDDK [APOB_Y740],0.388
12,PRAEWYRDDLL [MYOM2_Y317_V321L],0.692
13,AVVEPYNSLLT [TUBA1A_Y185_I188L],0.574
14,FGCTFYNQAIM [MCCC2_Y196_R193C],0.825
15,IITDYYVDMKF [MPP4_Y567_V562I],3.56
16,ATRDVYNPFET [SCAMP3_Y41_L38R],0.454

# Target: EPHB2 (UniProt P29323)
# Sequence (P29323 whole entry, looked up): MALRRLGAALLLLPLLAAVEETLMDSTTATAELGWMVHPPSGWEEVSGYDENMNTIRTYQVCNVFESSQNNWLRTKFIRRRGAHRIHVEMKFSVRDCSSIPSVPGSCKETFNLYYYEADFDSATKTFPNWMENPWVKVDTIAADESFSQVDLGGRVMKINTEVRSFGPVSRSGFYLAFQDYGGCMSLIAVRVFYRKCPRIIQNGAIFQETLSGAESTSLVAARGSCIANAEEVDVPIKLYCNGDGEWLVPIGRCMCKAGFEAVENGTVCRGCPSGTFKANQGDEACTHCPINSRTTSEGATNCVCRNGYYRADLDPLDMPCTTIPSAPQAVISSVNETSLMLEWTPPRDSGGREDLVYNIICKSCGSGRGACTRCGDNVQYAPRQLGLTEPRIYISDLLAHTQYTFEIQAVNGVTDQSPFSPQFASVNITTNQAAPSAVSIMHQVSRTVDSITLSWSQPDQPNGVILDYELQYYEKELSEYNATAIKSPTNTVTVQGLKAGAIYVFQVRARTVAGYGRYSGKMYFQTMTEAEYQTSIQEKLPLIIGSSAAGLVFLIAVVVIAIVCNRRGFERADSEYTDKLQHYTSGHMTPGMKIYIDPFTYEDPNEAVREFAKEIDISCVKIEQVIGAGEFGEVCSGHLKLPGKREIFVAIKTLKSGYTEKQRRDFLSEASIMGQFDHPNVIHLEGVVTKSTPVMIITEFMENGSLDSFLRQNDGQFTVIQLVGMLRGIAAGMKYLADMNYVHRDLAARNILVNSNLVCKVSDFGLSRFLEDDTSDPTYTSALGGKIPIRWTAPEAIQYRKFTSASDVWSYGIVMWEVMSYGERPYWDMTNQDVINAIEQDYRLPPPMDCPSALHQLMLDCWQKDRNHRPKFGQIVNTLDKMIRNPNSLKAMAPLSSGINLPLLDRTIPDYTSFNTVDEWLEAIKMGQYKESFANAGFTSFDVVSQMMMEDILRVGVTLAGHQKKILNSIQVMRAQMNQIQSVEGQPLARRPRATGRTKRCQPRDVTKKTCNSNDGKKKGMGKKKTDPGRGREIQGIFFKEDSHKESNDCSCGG
# Assay: as above
row,Sequence,phosphorylation enrichment
1,ILDEAYVMASM [EGFR_Y764_V769M],0.553
2,VFSATYHPDHW [EFCAB12_Y544_P541S_YF],0.519
3,PTYKHYANSTQ [SLC12A3_Y70_E68K],0.418
4,WKGSWYSMRKM [FGB_Y475],0.513
5,VIESSYQVAKA [CPT1B_Y534],0.483
6,FLRKEYGGVNV [CBR3_Y81_L84V],0.4
7,DGTGRYLCNAC [GATA5_Y208_H207R],0.4
8,NTADFYDLFGG [PTPN11_Y63_G60A_YF],0.591
9,KNCFKYYMSDD [ATRX_Y203],0.701
10,HNLNFYKKTTN [FGFR3_Y648_D646N_YF],0.553
11,PTFEHYANSTQ [SLC12A3_Y70_YF],0.993
12,LHSEAYLKFIE [PBRM1_Y1610_YF],0.881
13,EGWQVYRLGTR [MISP_Y95_A99T],0.457
14,PLKALYLQQRP [ATM_Y2969],0.687
15,DKNSSYFADWL [TUBB8_Y340],0.53
16,HFEDGYPGGSD [CTNND1_Y221_YF],0.675
17,SSNPEYLSASD [INSR_Y999],0.594

row,Sequence,phosphorylation enrichment
1,EEAAGCAQESQ [CAMKV_Y491_Y491C],0.591
2,YTNELYMMMRD [FGFR1_Y730_C725Y],3.13
3,LAEMNYVHRDL [EPHB1_Y740],0.632
4,SVVVTYEPPEV [TP53_Y220_P219T],1.61
5,SENAFYLSPHI [COL6A3_Y2827_D2831H],0.573
6,PYRSIYFSSPK [MPG_Y75],0.582
7,TEALYYTDDTA [ADPRS_Y75],0.78
8,SKDSAYVTWEP,0.576
9,GVLDIYGFEIL [MYO1A_Y382],0.541
10,AGADGYGFLAP [FOXL2_Y186_YF],0.508
11,VDHFGYTKDDK [APOB_Y740],0.327
12,PRAEWYRDDLL [MYOM2_Y317_V321L],0.726
13,AVVEPYNSLLT [TUBA1A_Y185_I188L],0.618
14,FGCTFYNQAIM [MCCC2_Y196_R193C],0.777
15,IITDYYVDMKF [MPP4_Y567_V562I],2.11
16,ATRDVYNPFET [SCAMP3_Y41_L38R],0.454

# Target: FGFR1 (UniProt P11362)
# Sequence (P11362 whole entry, looked up): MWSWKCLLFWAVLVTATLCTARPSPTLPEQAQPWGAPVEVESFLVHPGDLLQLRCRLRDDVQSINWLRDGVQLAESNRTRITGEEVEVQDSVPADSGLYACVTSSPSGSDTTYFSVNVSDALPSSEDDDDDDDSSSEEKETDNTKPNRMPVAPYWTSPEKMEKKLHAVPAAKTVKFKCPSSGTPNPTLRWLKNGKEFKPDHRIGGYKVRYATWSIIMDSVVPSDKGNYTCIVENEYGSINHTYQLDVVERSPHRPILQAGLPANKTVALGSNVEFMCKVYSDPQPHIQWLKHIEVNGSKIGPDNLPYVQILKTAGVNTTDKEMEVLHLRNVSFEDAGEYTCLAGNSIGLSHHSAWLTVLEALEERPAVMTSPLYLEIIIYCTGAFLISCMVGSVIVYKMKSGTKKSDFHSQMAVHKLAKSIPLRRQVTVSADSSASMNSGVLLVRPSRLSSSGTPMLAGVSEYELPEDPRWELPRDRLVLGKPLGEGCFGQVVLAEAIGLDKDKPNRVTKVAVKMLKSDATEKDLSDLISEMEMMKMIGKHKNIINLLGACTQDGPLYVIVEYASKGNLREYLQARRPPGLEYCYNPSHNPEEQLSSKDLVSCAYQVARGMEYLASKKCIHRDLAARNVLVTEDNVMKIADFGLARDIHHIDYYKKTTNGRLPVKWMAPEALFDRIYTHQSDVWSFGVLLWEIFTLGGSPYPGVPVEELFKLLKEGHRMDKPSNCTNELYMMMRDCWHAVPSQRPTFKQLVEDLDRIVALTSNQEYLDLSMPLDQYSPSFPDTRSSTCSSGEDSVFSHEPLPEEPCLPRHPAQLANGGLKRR
# Assay: as above
row,Sequence,phosphorylation enrichment
1,ILDEAYVMASM [EGFR_Y764_V769M],0.525
2,VFSATYHPDHW [EFCAB12_Y544_P541S_YF],0.548
3,PTYKHYANSTQ [SLC12A3_Y70_E68K],0.529
4,WKGSWYSMRKM [FGB_Y475],0.676
5,VIESSYQVAKA [CPT1B_Y534],0.489
6,FLRKEYGGVNV [CBR3_Y81_L84V],0.416
7,DGTGRYLCNAC [GATA5_Y208_H207R],0.475
8,NTADFYDLFGG [PTPN11_Y63_G60A_YF],0.515
9,KNCFKYYMSDD [ATRX_Y203],0.547
10,HNLNFYKKTTN [FGFR3_Y648_D646N_YF],0.735
11,PTFEHYANSTQ [SLC12A3_Y70_YF],0.818
12,LHSEAYLKFIE [PBRM1_Y1610_YF],0.939
13,EGWQVYRLGTR [MISP_Y95_A99T],0.44
14,PLKALYLQQRP [ATM_Y2969],0.774
15,DKNSSYFADWL [TUBB8_Y340],1.51
16,HFEDGYPGGSD [CTNND1_Y221_YF],0.668
17,SSNPEYLSASD [INSR_Y999],0.498

row,Sequence,phosphorylation enrichment
1,EEAAGCAQESQ [CAMKV_Y491_Y491C],0.527
2,YTNELYMMMRD [FGFR1_Y730_C725Y],2.52
3,LAEMNYVHRDL [EPHB1_Y740],0.412
4,SVVVTYEPPEV [TP53_Y220_P219T],0.493
5,SENAFYLSPHI [COL6A3_Y2827_D2831H],0.653
6,PYRSIYFSSPK [MPG_Y75],0.778
7,TEALYYTDDTA [ADPRS_Y75],3.91
8,SKDSAYVTWEP,1.48
9,GVLDIYGFEIL [MYO1A_Y382],0.579
10,AGADGYGFLAP [FOXL2_Y186_YF],0.652
11,VDHFGYTKDDK [APOB_Y740],0.497
12,PRAEWYRDDLL [MYOM2_Y317_V321L],0.591
13,AVVEPYNSLLT [TUBA1A_Y185_I188L],0.399
14,FGCTFYNQAIM [MCCC2_Y196_R193C],0.529
15,IITDYYVDMKF [MPP4_Y567_V562I],7.4
16,ATRDVYNPFET [SCAMP3_Y41_L38R],0.54

# Reference: the supplement of paper PMC10065799, “High-throughput profiling of sequence recognition by tyrosine kinases and SH2 domains using bacterial peptide display” (eLife, 2023)
